Source: paper PMC3188589, “Structural and Biochemical Studies of Human 4-hydroxy-2-oxoglutarate Aldolase: Implications for Hydroxyproline Metabolism in Primary Hyperoxaluria” (PLoS ONE, 2011)
Residue numbers refer to the chain shown, from its start. In names and notes the source's numbering stands. Several values for one entry are separate records, joined by “and”; a condition that tells them apart may be missing. Equal entries are not always repeated.

T1: bovine HOGA (bHOGA) (Bos taurus, UniProt Q0P5I5)
T1 construct: gene HOGA1; native mature enzyme purified from kidney cortex mitochondria, begins at residue 26, 35,217 Da printed, no tag
T1 sequence (Q0P5I5 26-327): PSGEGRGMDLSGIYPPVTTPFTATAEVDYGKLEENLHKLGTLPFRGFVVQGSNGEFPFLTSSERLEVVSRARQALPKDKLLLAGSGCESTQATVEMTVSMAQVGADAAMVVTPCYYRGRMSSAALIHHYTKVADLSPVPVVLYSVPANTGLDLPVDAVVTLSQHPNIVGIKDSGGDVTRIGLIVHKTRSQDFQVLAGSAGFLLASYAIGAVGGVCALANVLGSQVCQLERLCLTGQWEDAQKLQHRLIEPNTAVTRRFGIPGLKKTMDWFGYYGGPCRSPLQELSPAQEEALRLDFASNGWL

T2: human HOGA (hHOGA) (Homo sapiens, UniProt Q86XE5)
T2 construct: gene HOGA1; His-tag (WT, Y140F) cleavable by PreScission leaving GPH, 33,097 Da tag-free; S77, N78 and S198 mutants as MBP fusion, MBP cleaved; tetramer
T2 sequence (Q86XE5 26-327): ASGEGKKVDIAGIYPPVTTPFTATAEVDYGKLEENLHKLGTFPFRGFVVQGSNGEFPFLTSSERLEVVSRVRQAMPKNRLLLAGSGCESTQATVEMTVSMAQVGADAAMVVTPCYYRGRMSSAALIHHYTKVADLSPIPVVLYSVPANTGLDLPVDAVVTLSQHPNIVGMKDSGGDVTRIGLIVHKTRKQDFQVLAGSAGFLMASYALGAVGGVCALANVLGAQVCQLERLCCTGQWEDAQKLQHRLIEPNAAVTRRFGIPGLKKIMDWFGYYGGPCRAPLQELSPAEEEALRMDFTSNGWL

B1: human HOGA (hHOGA) (Homo sapiens; Y140F) (protein)
chain: T2 sequence (Q86XE5 26-327) with Y115F
notes: His-tag (WT, Y140F) cleavable by PreScission leaving GPH, 33,097 Da tag-free; S77, N78 and S198 mutants as MBP fusion, MBP cleaved; tetramer
B2: human HOGA (hHOGA) (Homo sapiens; S77A) (protein)
chain: T2 sequence (Q86XE5 26-327) with S52A
notes: as for B1
B3: human HOGA (hHOGA) (Homo sapiens; N78A) (protein)
chain: T2 sequence (Q86XE5 26-327) with N53A
notes: as for B1
B4: human HOGA (hHOGA) (Homo sapiens; N78T) (protein)
chain: T2 sequence (Q86XE5 26-327) with N53T
notes: as for B1
B5: human HOGA (hHOGA) (Homo sapiens; S198A) (protein)
chain: T2 sequence (Q86XE5 26-327) with S173A
notes: as for B1
B6: human HOGA (hHOGA) (Homo sapiens; N78Q) (protein)
chain: T2 sequence (Q86XE5 26-327) with N53Q
notes: as for B1
B7: human HOGA (hHOGA) (Homo sapiens) (protein)
chain: T2 sequence (Q86XE5 26-327)
notes: as for B1
B8: human HOGA (hHOGA) (Homo sapiens; S198T) (protein)
chain: T2 sequence (Q86XE5 26-327) with S173T
notes: as for B1
B9: human HOGA (hHOGA) (Homo sapiens; S77V) (protein)
chain: T2 sequence (Q86XE5 26-327) with S52V
notes: as for B1
B10: human HOGA (hHOGA) (Homo sapiens; S77T) (protein)
chain: T2 sequence (Q86XE5 26-327) with S52T
notes: as for B1
B11: human 4-hydroxy-2-oxoglutarate aldolase (hHOGA), His-tag free (enzyme)
chain: GPHASGEGKKVDIAGIYPPVTTPFTATAEVDYGKLEENLHKLGTFPFRGFVVQGSNGEFPFLTSSERLEVVSRVRQAMPKNRLLLAGSGCESTQATVEMTVSMAQVGADAAMVVTPCYYRGRMSSAALIHHYTKVADLSPIPVVLYSVPANTGLDLPVDAVVTLSQHPNIVGMKDSGGDVTRIGLIVHKTRKQDFQVLAGSAGFLMASYALGAVGGVCALANVLGAQVCQLERLCCTGQWEDAQKLQHRLIEPNAAVTRRFGIPGLKKIMDWFGYYGGPCRAPLQELSPAEEEALRMDFTSNGWL
notes: three additional N-terminal residues left from the PreScission Protease recognition site after removal of the His-tag; the protein starts at residue 26; 302 residues in the mature form; Tetramer (dimer of dimers) in the crystal; dimer-tetramer equilibrium in solution; also called human HOGA; HOGA1; source: E. coli BL21*(DE3), purified (Ni-NTA, Q-Sepharose HP, Superdex 200); His-tag removed with …

molecular target: T1, bovine HOGA (bHOGA); assay: phenylhydrazine assay of glyoxylate formation; assay type: biochemical; settings: racemic HOG; native enzyme from kidney mitochondria

`O=C(O)C(=O)CC(O)C(=O)O` (racemic) [HOG] was tested, and the “phenylhydrazine assay of glyoxylate formation” value was “production of glyoxylate from HOG synthesized in-house”.

molecular target: T2, human HOGA (hHOGA); assay: X-ray crystal structure, […] Å; assay type: binding; settings: covalent Schiff base with Lys196; 10 mM sodium pyruvate in crystallization, pH 7.5, 20°C

In the case of `CC(=O)C(=O)O` [pyruvate], the “X-ray crystal structure, 1.97 Å” value is reported as “clear continuous electron density for the imine Schiff base adduct between the ε-amino group of”.

substrate: O=C(O)C(=O)CC(O)C(=O)O; assay: purified protein; assay type: biochemical, Homo sapiens; settings: racemic HOG, 100 mM TRIS pH 8.5, 37°C, aldol cleavage

First: B1
Second: B2
The Km of the first is 10-fold lower: 8 ± 1 µM for the first, 84 ± 5 µM for the second.

Going from B3 to B4, the Km falls from 66 ± 4 µM to 16 ± 1 µM (4.1-fold).

Going from B5 to B6, the Km rises from 44 ± 2 µM to 281 ± 14 µM (6.4-fold).

Compared with B7, B8 is 7-fold higher in Km: 11 ± 1 µM for the first, 77 ± 5 µM for the second.

B9 and B10 are within 1.5-fold of each other in Km: 82 ± 7 µM for the first, 58 ± 8 µM for the second.

Compared with B1, B2 is 2.1-fold lower in kcat: 5.2 ± 0.1 s⁻¹ for the first, 2.5 ± 0.1 s⁻¹ for the second.

Going from B3 to B4, the kcat falls from 7.6 ± 0.1 s⁻¹ to 4 ± 0.1 s⁻¹ (1.9-fold).

First: B5
Second: B6
The kcat of the first is 2.6-fold lower: 2.4 ± 0.1 s⁻¹ for the first, 6.2 ± 0.1 s⁻¹ for the second.

B7 and B8 are within 1.5-fold of each other in kcat: 6.1 ± 0.1 s⁻¹ for the first, 7.8 ± 0.1 s⁻¹ for the second.

B9 and B10 are within 1.5-fold of each other in kcat: 1.2 ± 0.1 s⁻¹ for the first, 0.8 ± 0.1 s⁻¹ for the second.

Going from B1 to B2, the kcat/Km falls from 650000 ± 81000 M⁻¹ s⁻¹ to 30000 ± 2000 M⁻¹ s⁻¹ (22-fold).

Compared with B3, B4 is 2.2-fold higher in kcat/Km: 115000 ± 7000 M⁻¹ s⁻¹ for the first, 250000 ± 16000 M⁻¹ s⁻¹ for the second.

First: B5
Second: B6
The kcat/Km of the first is 2.5-fold higher: 55000 ± 3000 M⁻¹ s⁻¹ for the first, 22000 ± 1000 M⁻¹ s⁻¹ for the second.

First: B7
Second: B8
The kcat/Km of the first is 5.5-fold higher: 555000 ± 50000 M⁻¹ s⁻¹ for the first, 101000 ± 7000 M⁻¹ s⁻¹ for the second.

B9 and B10 are within error of each other in kcat/Km: 15000 ± 1000 M⁻¹ s⁻¹ for the first, 14000 ± 2000 M⁻¹ s⁻¹ for the second.

Molecular target: the molecule itself
Assay: crystal structure; apoenzyme (2.5 A) and pyruvate-Schiff base complex (1.97 A), space group P6(4)22, one molecule in the asymmetric unit; the tetramer is generated by crystallographic symmetry
Settings: not given

B11 was tested, and the “stoichiometry N” value was 4.

Molecular target: the molecule itself
Assay: AUC; sedimentation equilibrium; His-tag free hHOGA at 0.43, 0.82, 1.25 mg/ml and a replicate at 0.45, 0.78, 1.14 mg/ml, two rotor speeds; 20 mM HEPES pH 7.5, 100 mM NaCl; fit to a dimer-tetramer model (HETEROANALYSIS, SEDPHAT); tetramer to dimers
Settings: not given

B11 was tested, and the Kd was ~60 µM and 58 to 63 µM.
